Article PMC8518580
pKd: −log10 of the molar value.

Key:
Conditions in all cases: EMSA: LightShift REMSA kit, 30 min, 25 °C, 5% native PAGE (buffer not given); MST: Monolith NT.115, RED-labelled NbeEF1A, labelling in PBS, temperature not …
[1] = tested on: NbeEF1A (eEF1A) (Nicotiana benthamiana); assay: MST
[2] = tested on: NbeEF1A (eEF1A) (Nicotiana benthamiana); assay: MST; remark: listed apart in the source
[3] = tested on: NbeEF1A (eEF1A) (Nicotiana benthamiana); assay: EMSA

Substance	pKd [1]	pKd [2]	binding signal (% of WT 3'-UTR) [3]
RNA2 3'-UTR del3174-3406	7.16		
CWMV RNA2 (+) 3'-UTR	7.90	8.19	
RNA2 3'-UTR dSL-4 (del3505-3509)		6.95	
RNA2 3'-UTR dSL-3 (del3500-3503)		7.48	
RNA2 3'-UTR del3407-3569	6.00		
RNA2 3'-UTR dSL-2 (del3469-3471)		7.04	
RNA2 3'-UTR dSL-6 (del3561-3565)		6.00	6
RNA1 3'-UTR del6730-6987	7.17		
CWMV RNA1 (+) 3'-UTR	8.14		
RNA1 3'-UTR del6988-7147	6.02		
RNA2 3'-UTR dSL-5 (del3532-3535)		7.44	
RNA2 3'-UTR dSL-1 (del3419-3429)		6.93	
